The text below walks through data of PMC12421377, “Molecular basis for the recognition of low-frequency polyadenylation signals by mPSF”.

The labels stand for the following.
B1: AAUAAU 12-mer (ssRNA)
RNA: UGCAAUAAUCAA
B2: AAUAAA 12-mer (ssRNA)
RNA: UGCAAUAAACAA
B3: CUAUAAA-context UAUAAA 12-mer (ssRNA)
RNA: UGCUAUAAACAA
B4: AAUAGA 12-mer (ssRNA)
RNA: UGCAAUAGACAA
B5: AAUACA 12-mer (ssRNA)
RNA: UGCAAUACACAA
B6: CAUAAA 12-mer (ssRNA)
RNA: UGCCAUAAACAA
B7: AACAAA 12-mer (ssRNA)
RNA: UGCAACAAACAA
B8: GAUAAA 12-mer (ssRNA)
RNA: UGCGAUAAACAA
B9: AAGAAA 12-mer (ssRNA)
RNA: UGCAAGAAACAA
B10: AUUAUA 12-mer (ssRNA)
RNA: UGCAUUAUACAA
B11: ACUAAA 12-mer (ssRNA)
RNA: UGCACUAAACAA
B12: AUUAAA 12-mer (ssRNA)
RNA: UGCAUUAAACAA
B13: AAUAAG 12-mer (ssRNA)
RNA: UGCAAUAAGCAA
B14: AAUAUA 12-mer (ssRNA)
RNA: UGCAAUAUACAA
B15: AAUGAA 12-mer (ssRNA)
RNA: UGCAAUGAACAA
B16: AGUAAA 12-mer (ssRNA)
RNA: UGCAGUAAACAA

The target in the first data set is T1, mPSF (CPSF160-WDR33-CPSF30-Fip1) (human, UniProt Q10570;Q9C0J8;O95639-2;Q6UN15 1-1443;1-572;1-244;1-594). The data set can be described thus: cryo-EM structure (3.1 A); RNA up to 40 uM, mPSF 1.4 uM; 20 mM Tris pH 8.0, 150 mM NaCl, 10 mM DTT, 100 nM BSA, 0.01% NP-40; 45 min on ice, read at room temperature; triplicates. The settings on record: protein: recombinant; copies: 1;1;1;1.
T1 sequence (Q10570 whole entry, chain 1 of 4): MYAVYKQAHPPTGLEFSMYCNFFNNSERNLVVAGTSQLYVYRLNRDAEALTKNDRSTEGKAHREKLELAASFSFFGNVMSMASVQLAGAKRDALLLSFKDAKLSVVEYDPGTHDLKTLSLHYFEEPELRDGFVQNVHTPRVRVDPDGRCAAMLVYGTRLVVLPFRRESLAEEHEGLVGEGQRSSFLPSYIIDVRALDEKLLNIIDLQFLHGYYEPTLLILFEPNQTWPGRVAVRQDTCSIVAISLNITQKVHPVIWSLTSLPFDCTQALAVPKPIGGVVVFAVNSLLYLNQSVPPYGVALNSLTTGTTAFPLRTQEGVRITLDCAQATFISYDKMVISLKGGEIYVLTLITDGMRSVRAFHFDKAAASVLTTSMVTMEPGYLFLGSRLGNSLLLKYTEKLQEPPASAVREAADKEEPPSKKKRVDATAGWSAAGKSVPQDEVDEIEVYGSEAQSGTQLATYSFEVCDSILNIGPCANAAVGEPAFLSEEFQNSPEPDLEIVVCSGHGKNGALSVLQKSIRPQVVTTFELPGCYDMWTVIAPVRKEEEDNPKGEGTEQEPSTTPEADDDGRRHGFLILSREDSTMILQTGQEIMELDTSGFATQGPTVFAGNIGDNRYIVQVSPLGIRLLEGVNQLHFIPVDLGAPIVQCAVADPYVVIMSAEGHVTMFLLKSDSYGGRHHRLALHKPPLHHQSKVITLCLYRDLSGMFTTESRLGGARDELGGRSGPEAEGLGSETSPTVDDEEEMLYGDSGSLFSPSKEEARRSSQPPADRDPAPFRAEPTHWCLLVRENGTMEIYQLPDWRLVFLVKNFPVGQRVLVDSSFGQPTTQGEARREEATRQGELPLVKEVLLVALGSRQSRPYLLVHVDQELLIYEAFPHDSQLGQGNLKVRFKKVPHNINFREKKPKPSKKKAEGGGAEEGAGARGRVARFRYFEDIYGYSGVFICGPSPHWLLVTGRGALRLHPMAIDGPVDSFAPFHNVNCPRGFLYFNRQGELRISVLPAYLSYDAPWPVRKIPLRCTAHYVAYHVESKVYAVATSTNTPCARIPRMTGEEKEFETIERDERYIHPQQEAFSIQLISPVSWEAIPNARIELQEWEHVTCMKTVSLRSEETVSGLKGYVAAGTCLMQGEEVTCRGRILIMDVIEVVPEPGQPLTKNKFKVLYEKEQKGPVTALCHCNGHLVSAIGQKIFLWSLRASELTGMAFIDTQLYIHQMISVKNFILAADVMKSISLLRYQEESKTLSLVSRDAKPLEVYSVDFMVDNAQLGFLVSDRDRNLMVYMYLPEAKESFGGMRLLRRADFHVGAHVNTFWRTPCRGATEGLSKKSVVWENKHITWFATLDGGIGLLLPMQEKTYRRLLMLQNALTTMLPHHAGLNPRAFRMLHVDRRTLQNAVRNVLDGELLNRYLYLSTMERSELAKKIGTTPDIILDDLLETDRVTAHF
T1 sequence (Q9C0J8 1-572, chain 2 of 4): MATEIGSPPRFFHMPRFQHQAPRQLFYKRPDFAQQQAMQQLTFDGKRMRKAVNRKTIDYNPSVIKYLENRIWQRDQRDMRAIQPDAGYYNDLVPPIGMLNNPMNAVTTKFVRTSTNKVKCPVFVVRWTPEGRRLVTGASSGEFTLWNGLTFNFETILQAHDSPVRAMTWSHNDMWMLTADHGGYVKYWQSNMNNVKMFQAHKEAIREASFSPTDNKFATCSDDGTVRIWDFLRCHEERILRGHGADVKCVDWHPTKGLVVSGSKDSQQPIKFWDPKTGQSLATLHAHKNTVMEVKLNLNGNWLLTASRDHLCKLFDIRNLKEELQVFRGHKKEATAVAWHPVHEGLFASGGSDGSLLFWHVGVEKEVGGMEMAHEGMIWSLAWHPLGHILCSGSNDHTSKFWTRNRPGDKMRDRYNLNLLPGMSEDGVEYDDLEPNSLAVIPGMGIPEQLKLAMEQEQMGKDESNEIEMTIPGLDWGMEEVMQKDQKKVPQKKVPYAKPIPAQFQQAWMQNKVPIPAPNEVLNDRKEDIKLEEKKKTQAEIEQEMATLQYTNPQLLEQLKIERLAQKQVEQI
T1 sequence (O95639 other isoform, or with tags, fused parts or gaps, chain 3 of 4): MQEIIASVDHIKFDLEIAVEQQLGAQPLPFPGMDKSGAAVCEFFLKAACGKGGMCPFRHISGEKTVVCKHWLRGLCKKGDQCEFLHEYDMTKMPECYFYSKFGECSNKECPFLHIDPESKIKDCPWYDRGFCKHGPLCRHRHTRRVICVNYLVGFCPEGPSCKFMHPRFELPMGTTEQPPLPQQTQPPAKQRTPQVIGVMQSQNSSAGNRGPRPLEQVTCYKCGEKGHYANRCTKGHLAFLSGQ
T1 sequence (Q6UN15 whole entry, chain 4 of 4): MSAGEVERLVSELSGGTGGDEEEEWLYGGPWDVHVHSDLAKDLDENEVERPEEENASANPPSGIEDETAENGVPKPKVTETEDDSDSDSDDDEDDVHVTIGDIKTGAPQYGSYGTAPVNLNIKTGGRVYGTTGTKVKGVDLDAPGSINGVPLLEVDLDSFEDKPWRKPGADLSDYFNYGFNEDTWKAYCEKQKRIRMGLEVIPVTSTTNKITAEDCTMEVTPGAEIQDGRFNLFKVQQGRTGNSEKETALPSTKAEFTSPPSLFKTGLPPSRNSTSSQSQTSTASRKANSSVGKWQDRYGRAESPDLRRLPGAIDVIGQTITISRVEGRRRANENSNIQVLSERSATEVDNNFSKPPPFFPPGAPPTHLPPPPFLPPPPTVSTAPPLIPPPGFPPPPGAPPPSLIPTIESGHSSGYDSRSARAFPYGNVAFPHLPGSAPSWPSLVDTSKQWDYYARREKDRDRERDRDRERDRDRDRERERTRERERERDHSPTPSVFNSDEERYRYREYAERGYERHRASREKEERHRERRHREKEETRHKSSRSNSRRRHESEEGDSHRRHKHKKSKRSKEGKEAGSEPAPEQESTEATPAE
For the molecule B1, the binding result is “binds”.

The next data set addresses T1, mPSF (CPSF160-WDR33-CPSF30-Fip1). The data set can be described thus: competition fluorescence anisotropy; vs 3 nM FAM-AAUAAA, 30 nM mPSF; 20 mM Tris pH 8.0, 150 mM NaCl, 10 mM DTT, 100 nM BSA, 0.01% NP-40; 45 min on ice, read at room temperature; triplicates. Particulars: protein: recombinant; copies: 1;1;1;1.
Turning to B2, the Kd was determined as 40 nM.

For the next data set the target is unchanged. The data set can be described thus: competition fluorescence anisotropy; vs FAM-AAUAAA; 20 mM Tris pH 8.0, 150 mM NaCl, 10 mM DTT, 100 nM BSA, 0.01% NP-40; 45 min on ice, read at room temperature; triplicates. Particulars: protein: recombinant; copies: 1;1;1;1.
Take B3: the Kd turned out to be 520 nM.
In the case of B4, the Kd is 2000 nM.
With B5, the Kd amounted to 2200 nM.
Turning to B6, the Kd came out at 780 nM.
The same measure, in the same setting: the value for B7 was 13000 nM; that for B8 was 580 nM.
Turning to B9, the Kd was determined as 1870 nM.
Still for that read-out and setting: the value for B10 was 2140 nM; that for B11 was 2700 nM; that for B12 was 79 nM.
For B13, the Kd stood at 11500 nM.
Same read-out and setting: with B14 the figure was 2500 nM.
On the same count and under the same terms, with B15 the figure was 1180 nM.

The target is the same in the next data set. The data set can be described thus: cryo-EM structure (2.5 A); RNA up to 40 uM, mPSF 1.4 uM; 20 mM Tris pH 8.0, 150 mM NaCl, 10 mM DTT, 100 nM BSA, 0.01% NP-40; 45 min on ice, read at room temperature; triplicates. Particulars: protein: recombinant; copies: 1;1;1;1.
Take B16: the binding result was “binds”.
